{"source": "paper doi:10.1101/2021.12.23.474050", "about": "(bioRxiv, 2021)", "binders": {"B1": {"name": "LY-CoV555 ScFv (scFv, V domains shown)", "VH": "QVQLVQSGAEVKKPGSSVKVSCKASGGTFSNYAISWVRQAPGQGLEWMGRIIPILGIANYAQKFQGRVTITADKSTSTAYMELSSLRSEDTAVYYCARGYYEARHYYYYYAMDVWGQGTAVTVSS", "VL": "not shown"}, "B2": {"name": "REGN-10987 ScFv (scFv, V domains shown)", "VH": "QVQLVESGGGVVQPGRSLRLSCAASGFTFSNYAMYWVRQAPGKGLEWVAVISYDGSNKYYADSVKGRFTISRDNSKNTLYLQMNSLRTEDTAVYYCASGSDYGDYLLVYWGQGTLVTVSS", "VL": "QSALTQPASVSGSPGQSITISCTGTSSDVGGYNYVSWYQQHPGKAPKLMIYDVSKRPSGVSNRFSGSKSGNTASLTISGLQSEDEADYYCNSLTSISTWVFGGGTKLTVL"}}, "biological_target": "wild-type (WT) RBD of the SARS-CoV-2 spike protein (SARS-CoV-2, UniProt P0DTC2)", "experiment": "ITC", "data": [{"binder": "B1", "values": [{"measurement": "Kd", "result": "3.8 ± 1.9", "unit": "nM"}]}, {"binder": "B2", "values": [{"measurement": "Kd", "result": "34.3 ± 8.1", "unit": "nM"}]}]}
